Test results: publication PMC12079483 (2025)

B1: extracellular domains of the trimeric IL-2 receptor (IL-2Rαβγ) (complex)
chain 1: ELCDDDPPEIPHATFKAMAYKEGTMLNCECKRGFRRIKSGSLYMLCTGNSSHSSWDNQCQCTSSATRNTTKQVTPQPEEQKERKTTEMQSPMQPVDQASLPGHCREPPPWENEATERIYHFVVGQMVYYQCVQGYRALHRGPAESVCKMTHGKTRWTQPQLICTGEMETSQFPGEEKPQASPEGRPESETSCLVTTTDFQIQTEMAATMETSIFTTEYQ
chain 2: AVNGTSQFTCFYNSRANISCVWSQDGALQDTSCQVHAWPDRRRWNQTCELLPVSQASWACNLILGAPDSQKLTTVDIVTLRVLCREGVRWRVMAIQDFKPFENLRLMAPISLQVVHVETHRCNISWEISQASHYFERHLEFEARTLSPGHTWEEAPLLTLKQKQEWICLETLTPDTQYEFQVRVKPLQGEFTTWSPWSQPLAFRTKPAALGKDT
chain 3: LNTTILTPNGNEDTTADFFLTTMPTDSLSVSTLPLPEVQCFVFNVEYMNCTWNSSSEPQPTNLTLHYWYKNSDNDKVQKCSHYLFSEEITSGCQLQKKEIHLYQTFVVQLQDPREPRRQATQMLKLQNLVIPWAPENLTLHKLSESQLELNWNNRFLNHCLEHLVQYRTDWDHSWTEQSVDYRHKFSLPSVDGQKRYTFRVRSRFNPLCGSAQHWSEWSHPIHWGSNTSKENPFLFALEA
B2: extracellular domains of the dimeric IL-2 receptor (IL-2Rβγ) (complex)
chain 1: B1 chain 2
chain 2: B1 chain 3
B3: extracellular domain of the IL-2 receptor α chain (IL-2Rα, CD25) (receptor)
chain: B1 chain 1
B4: extracellular domain of the IL-2 receptor β chain (IL-2Rβ) (receptor)
chain: B1 chain 2

How the values were obtained:
[1] = molecular target: D20-20K (IL-2 with 20K PEG conjugated at Asp20) (UniProt P60568 21-153, D20 to NAEK, Nε-2-azideoethyloxycarbonyl-L-lysine (NAEK) at position 20, conjugated with DBCO-tethered PEG of 20 kDa by copper-free click reaction); assay: SPR
[2] = molecular target: Y45-20K (IL-2 with 20K PEG conjugated at Tyr45) (UniProt P60568 21-153, Y45 to NAEK, Nε-2-azideoethyloxycarbonyl-L-lysine (NAEK) at position 45, conjugated with DBCO-tethered PEG of 20 kDa by copper-free click reaction); assay: SPR

Row | Kd [1] | Kd [2] | Binder
1 | 58.1 nM |  | B1
2 |  | 32.8 nM | B2
3 | 99.9 nM |  | B3
4 |  | 690 nM | B4
